# Test results taken from paper PMC4538827.
# Where “and” joins values, the source holds several entries; their conditions need not be identical. Identical values can stand only once.
# Tests used:
# [1] = molecular target: T1, σNS (sigma NS) (Avian reovirus strain 1733) (UniProt W8NR44); experiment: fluorescence anisotropy; conditions: FA: 10 mM HEPES-NaOH pH 7.5, 150 mM NaCl, 21 C, 1 nM RNA, 30 min; smFRET in same buffer at 37 C; SEC 25 mM HEPES-Na pH 7.8, 150 mM NaCl, 4 C
# T1 sequence: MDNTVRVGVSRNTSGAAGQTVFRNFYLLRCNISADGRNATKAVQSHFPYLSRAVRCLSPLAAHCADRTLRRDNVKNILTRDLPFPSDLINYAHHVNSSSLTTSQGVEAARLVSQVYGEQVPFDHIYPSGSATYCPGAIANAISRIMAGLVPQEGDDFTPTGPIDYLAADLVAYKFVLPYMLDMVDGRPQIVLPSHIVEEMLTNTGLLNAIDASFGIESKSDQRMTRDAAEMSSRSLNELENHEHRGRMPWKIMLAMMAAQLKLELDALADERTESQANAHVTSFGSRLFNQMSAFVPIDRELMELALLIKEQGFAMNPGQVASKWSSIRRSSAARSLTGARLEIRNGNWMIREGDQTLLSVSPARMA
# [2] = molecular target: T1, σNS (sigma NS) (Avian reovirus strain 1733); experiment: fluorescence anisotropy; conditions: FA: 10 mM HEPES-NaOH pH 7.5, 150 mM NaCl, 21 C, 1 nM RNA, 30 min; smFRET in same buffer at 37 C; SEC 25 mM HEPES-Na pH 7.8, 150 mM NaCl, 4 C; remark: listed apart in the source
# [3] = molecular target: T1, σNS (sigma NS) (Avian reovirus strain 1733); experiment: ensemble FRET; conditions: FA: 10 mM HEPES-NaOH pH 7.5, 150 mM NaCl, 21 C, 1 nM RNA, 30 min; smFRET in same buffer at 37 C; SEC 25 mM HEPES-Na pH 7.8, 150 mM NaCl, 4 C
# [4] = molecular target: T1, σNS (sigma NS) (Avian reovirus strain 1733); experiment: FCS; conditions: FA: 10 mM HEPES-NaOH pH 7.5, 150 mM NaCl, 21 C, 1 nM RNA, 30 min; smFRET in same buffer at 37 C; SEC 25 mM HEPES-Na pH 7.8, 150 mM NaCl, 4 C
# [5] = molecular target: avian reovirus σNS (ARV strain 1733), full-length recombinant (avian reovirus strain 1733); experiment: native MS
# [6] = molecular target: avian reovirus σNS (ARV strain 1733), full-length recombinant (avian reovirus strain 1733); experiment: SAXS
# [7] = molecular target: avian reovirus σNS (ARV strain 1733), full-length recombinant (avian reovirus strain 1733); experiment: native MS; remark: listed apart in the source
# [8] = molecular target: avian reovirus σNS (ARV strain 1733), full-length recombinant (avian reovirus strain 1733); experiment: AUC
Substance,Kd [1] [nM],Kd [2] [nM],Kd [4] [nM],further results
20-nt ssDNA,24.5,–,–,–
ATAGGTATAACAGTTAACGTATGCTATACGCTAATAGCATACGTTT [46-nt stem-loop],–,333,–,Kd [3]: 1100 nM
GACCUAUUCUCUUUUUCUCU [20-nt RNA],35,26.5,39.5,–
GGGAGACCUAUUCUCUUUUUCUCUCCUUUUCCCCCCUGUUGCUUUAUUUUCCUUCUUUGCCUUUUUCUCUCUUUUUUUUUCUUUUUUCCCUUUCUGCUUUCCUCCCCUAUUCUCCCCUCUU [120-nt RNA],–,25,–,–
MS2 RNA (3569 nt),–,–,250,–
"avian reovirus σNS (ARV strain 1733), full-length recombinant (natural protein)",–,–,–,stoichiometry N [5]: 6 and 2 and 4; stoichiometry N [6]: 6; stoichiometry N [7]: 8; stoichiometry N [8]: 6
